From patent US20250195629A1, “SITE-SPECIFIC BRAIN THERAPEUTICS” (William Marsh Rice University, priority 2023, published 2025)
Read-outs that look alike come from different tables or passages of the source.

Key:
[1] = test system: dopamine receptor D1+ or D2+ expressing cells in the CPu; format: in vivo, mouse
Procedure: c-Fos activation with engineered AADC—Three groups of mice underwent FUS-BBBO procedure to target a single site at left striatum immediately after intravenous injection of recombinant protein AADC-IKVAV (SEQ ID NO: 23) (20 mg/mL, 250 mg/kg) or equivalent volume of PBS buffer (n=5 mice for FUS alone+L-DOPA group). After 48 h, the mice were given a single dose of L-DOPA (0.1 mg/mL, 2 mg/kg, i.p.; Spectrum Chemical) 10 min after injection of carbidopa (1 mg/mL, 25 mg/kg, i.p.; Sigma-Aldrich), both of which were dissolved in sterile saline containing 2.5 and 0.125 mg/mL ascorbic acid. […] After 2 hours, the mice were euthanized by transcardial perfusion, and their brains were extracted and sliced into 50 μm coronal sections following 24-48 hours of fixation.
The section displaying the strongest AADC fluorescence was selected as the representative for each mouse, and its adjacent section was stained separately to identify c-Fos and dopamine receptor D1 and D2 positive cells. The procedure was carried out as follows: (1) block sections in 10% normal goat serum (SouthernBiotech) and 0.3% Triton-X solution in PBS for 1 h at room temperature; (2) incubate with primary rabbit anti-c-Fos (1:2000, 2250S, Cell Signaling Technology) antibody in PBS with 0.3% Triton-X for 2 h at room temperature; (3) after washing three times in PBS (15 min each, the same as below), incubate with primary rat anti-D1 Dopamine Receptor (1:500, D2944, MilliporeSigma) and Guinea pig anti-Dopamine Receptor D2 (1:500, Cat. #376 205, Synaptic Systems) antibodies in 5% normal goat serum and 0.3% Triton-X solution in PBS overnight at 4° C.; (4) after washing three times, incubate with secondary goat anti-rabbit antibody conjugated to Alexa Fluor 647 (1:500, A-21245, ThermoFisher) in PBS with 0.3% Triton-X for 2 h at room temperature; (5) after washing three times, incubate with secondary goat anti-rat antibody conjugated to Alexa Fluor 546 (1:500, A-11081, ThermoFisher) and goat anti-Guinea Pig antibody conjugated to Alexa Fluor 488 (1:500, A-11073, ThermoFisher) in 5% normal goat serum and 0.3% Triton-X solution in PBS for 2 h at room temperature; (6) after washing three times, mount sections onto glass slides using the mounting media (Vector Laboratories) with DAPI and air-dry overnight in dark before imaging.
Within the left striatum region, a specific 5×9 binned rectangle area was selected corresponding to the highest observed AADC fluorescence in the adjacent AADC-stained section. Subsequently, images were captured of these areas using a 40× objective. The corresponding contralateral areas in the right striatum were also imaged.
(§1) In FIG. 7, we applied the following brightness (white) thresholds for the corresponding channels: 6045 (DAPI, nuclei, not shown), 15,000 (Cy3, D1R), 16,000 (green, D2R), and 6045 (far-red, c-Fos), with a gamma value of 1. In FIG. 11, we applied a Brightness (White) threshold of 6045 for both DAPI (nuclei, not shown) and far-red (c-Fos) channels, with a Gamma value of 1. The images were then overlayed, and the c-Fos+ cells were manually counted. Similarly, the GFAP+ cells were manually counted, as shown in FIG. 15c and FIG. 17, by applying a Brightness (White) threshold of 5686 and a Gamma value of 1 for both the DAPI (nuclei) and far-red (GFAP, purple) channels.
To manually count the c-Fos-positive cells in FIG. 7, three scorers (Z. H., S. N., and R. J.) independently assessed all c-Fos staining sites. R. J. served as the blinded scorer, and the averaged counts from all three scorers were rounded for the final statistical analysis.

c-Fos+ cells in the CPu = experiment: c-Fos+ cell count at the CPu after behavior test; format: in vivo, mouse
Source text: To quantify the c-Fos-positive cells related to FIG. 11, the stained coronal sections were initially imaged using a 4× objective in DAPI (nuclei, not shown) and far-red (c-Fos, shown in purple) channels. Within the left striatum region, one or more specific 3×3 binned square areas were selected corresponding to the highest observed AADC fluorescence in the adjacent AADC-stained section. Subsequently, images of these areas were captured using a 40× objective. Corresponding contralateral areas in the right striatum were also captured.
as §1
To address potential bias and validate our counting approach, all c-Fos staining sites from mice in FIG. 11 were independently counted by 4 scorers (A. M., Z. H., C. H. and R. J.). C. […]

Molecule	c-Fos+ cells expressing D1+ or D2+, FUS-targeted region vs contralateral site ([1]; FUS alone + L-DOPA 2 mg/kg i.p., no enzyme)	c-Fos+ cells with no expression of D1+ or D2+ in vicinity of CPu, FUS-targeted vs contralateral ([1]; FUS-BBBO only without AADC-IKVAV (FUS alone+L-DOPA))	change in ipsilateral c-Fos-positive cells vs contralateral site (c-Fos+ cells in the CPu; untreated mice or FUS alone, L-DOPA 2 mg/kg i.p.)	c-Fos+ cells expressing D1+ or D2+, FUS-targeted region vs contralateral site ([1]; FUS+AADC-IKVAV 250 mg/kg i.v., L-DOPA 2 mg/kg i.p. after 48 h, perfused 2 h later)	c-Fos+ cells with no expression of D1+ or D2+ in vicinity of CPu, FUS-targeted vs contralateral ([1]; FUS+AADC-IKVAV alone)	c-Fos+ cells expressing D1+ or D2+, FUS-targeted region vs contralateral site ([1]; FUS+AADC-IKVAV without L-DOPA)	c-Fos+ cells with no expression of D1+ or D2+ in vicinity of CPu, FUS-targeted vs contralateral ([1]; FUS+AADC-IKVAV+L-DOPA)	increase in ipsilateral c-Fos-positive cells vs contralateral site (c-Fos+ cells in the CPu; RAID-treated mice, FUS+AADC-IKVAV+L-DOPA, counted by A. M. and Z. H.)
N[C@@H](Cc1ccc(O)c(O)c1)C(=O)O [L-DOPA, reference compound]	No significant change	no significant changes	no significant changes					
AADC-IKVAV: aromatic-L-amino-acid decarboxylase (AADC) protein fused with short peptide IKVAV (SEQ ID NO: 23); CDS SEQ ID NO: 21 (protein, misc_feature 1..1602 Synthetic: AADC-IKVAV) MRGSHHHHHHGMASMTGGQQMGRDLYDDDDKDPMNASEFRRRGKEMVDYMANYMEGIEGRQVYPDVEPGYLRPLIPAAAPQEPDTFEDIINDVEKIIMPGVTHWHSPYFFAYFPTASSYPAMLADMLCGAIGCIGFSWAASPACTELETVMMDWLGKMLELPKAFLNEKAGEGGGVIQGSASEATLVALLAARTKVIHRLQAASPELTQAAIMEKLVAYSSDQAHSSVERAGLIGGVKLKAIPSDGNFAMRASALQEALERDKAAGLIPFFMVATLGTTTCCSFDNLLEVGPICNKEDIWLHVDAAYAGSAFICPEFRHLLNGVEFADSFNFNPHKWLLVNFDCSAMWVKKRTDLTGAFRLDPTYLKHSHQDSGLITDYRHWQIPLGRRFRSLKMWFVFRMYGVKGLQAYIRKHVQLSHEFESLVRQDPRFEICVEVILGLVCFRLKGSNKVNEALLQRINSAKKIHLVPCHLRDKFVLRFAICSRTVESAHVQRAWEHIKELAADVLRAEREGGSGSSGGSGGSGGSGIKVAV				6.6 (±1.7) fold	no statistically significant changes	No significant change	no statistically significant changes	5.7(±1.8) fold
